Measured values as given in patent publication US20140213513A1 (Sanofi, priority 2012, published 2014).
*1 amine or outer side, *2 acyl side, *3 side chain or, on linkers, in order; H or OH if unused. Where no end group is shown, it is not given here. Side-chain parts run from the residue outwards. [ ]: non-standard residue; d: D form. The star is where a group is joined. γGlu = O=C(O)[C@H](CCC(=O)[*:2])N[*:1]; Palmitoyl = CCCCCCCCCCCCCCCC(=O)*; Aib = CC(C)(N)C(=O)O

T1: human GIP receptor (human, UniProt P48546 22-466)
T1 sequence (looked up): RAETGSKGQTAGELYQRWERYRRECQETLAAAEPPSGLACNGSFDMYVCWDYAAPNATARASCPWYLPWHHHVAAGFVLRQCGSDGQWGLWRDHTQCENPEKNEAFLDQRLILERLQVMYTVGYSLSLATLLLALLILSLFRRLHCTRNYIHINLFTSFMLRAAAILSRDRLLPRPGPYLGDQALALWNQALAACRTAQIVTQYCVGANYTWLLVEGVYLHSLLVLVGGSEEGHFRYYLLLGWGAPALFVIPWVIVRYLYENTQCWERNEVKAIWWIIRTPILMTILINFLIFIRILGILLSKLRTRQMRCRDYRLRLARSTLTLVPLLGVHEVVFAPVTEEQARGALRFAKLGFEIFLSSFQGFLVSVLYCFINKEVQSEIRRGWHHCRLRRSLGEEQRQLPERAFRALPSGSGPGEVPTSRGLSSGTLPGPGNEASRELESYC

B1: exendin-4 peptide analogue SEQ ID NO: 50 (peptide)
peptide: Y[Aib]QGTFTSDLSIQK([γGlu-Palmitoyl])DSRAVQDFIEWLKAGGPSSGAPPPS-NH2
modifications: N-terminus assumed
SMILES: CCCCCCCCCCCCCCCC(=O)N[C@@H](CCC(=O)NCCCC[C@H](NC(=O)[C@H](CCC(N)=O)NC(=O)[C@@H](NC(=O)[C@H](CO)NC(=O)[C@H](CC(C)C)NC(=O)[C@H](CC(=O)O)NC(=O)[C@H](CO)NC(=O)[C@@H](NC(=O)[C@H](Cc1ccccc1)NC(=O)[C@@H](NC(=O)CNC(=O)[C@H](CCC(N)=O)NC(=O)C(C)(C)NC(=O)[C@@H](N)Cc1ccc(O)cc1)[C@@H](C)O)[C@@H](C)O)[C@@H](C)CC)C(=O)N[C@@H](CC(=O)O)C(=O)N[C@@H](CO)C(=O)N[C@@H](CCCNC(=N)N)C(=O)N[C@@H](C)C(=O)N[C@H](C(=O)N[C@@H](CCC(N)=O)C(=O)N[C@@H](CC(=O)O)C(=O)N[C@@H](Cc1ccccc1)C(=O)N[C@H](C(=O)N[C@@H](CCC(=O)O)C(=O)N[C@@H](Cc1c[nH]c2ccccc12)C(=O)N[C@@H](CC(C)C)C(=O)N[C@@H](CCCCN)C(=O)N[C@@H](C)C(=O)NCC(=O)NCC(=O)N1CCC[C@H]1C(=O)N[C@@H](CO)C(=O)N[C@@H](CO)C(=O)NCC(=O)N[C@@H](C)C(=O)N1CCC[C@H]1C(=O)N1CCC[C@H]1C(=O)N1CCC[C@H]1C(=O)N[C@@H](CO)C(N)=O)[C@@H](C)CC)C(C)C)C(=O)O
B2: exendin-4 peptide analogue SEQ ID NO: 49 (peptide)
peptide: Y[Aib]QGTFTSDLSIQK([γGlu-Palmitoyl])DSIAAQDFIEWLKAGGPSSGAPPPS-NH2
modifications: N-terminus assumed
SMILES: CCCCCCCCCCCCCCCC(=O)N[C@@H](CCC(=O)NCCCC[C@H](NC(=O)[C@H](CCC(N)=O)NC(=O)[C@@H](NC(=O)[C@H](CO)NC(=O)[C@H](CC(C)C)NC(=O)[C@H](CC(=O)O)NC(=O)[C@H](CO)NC(=O)[C@@H](NC(=O)[C@H](Cc1ccccc1)NC(=O)[C@@H](NC(=O)CNC(=O)[C@H](CCC(N)=O)NC(=O)C(C)(C)NC(=O)[C@@H](N)Cc1ccc(O)cc1)[C@@H](C)O)[C@@H](C)O)[C@@H](C)CC)C(=O)N[C@@H](CC(=O)O)C(=O)N[C@@H](CO)C(=O)N[C@H](C(=O)N[C@@H](C)C(=O)N[C@@H](C)C(=O)N[C@@H](CCC(N)=O)C(=O)N[C@@H](CC(=O)O)C(=O)N[C@@H](Cc1ccccc1)C(=O)N[C@H](C(=O)N[C@@H](CCC(=O)O)C(=O)N[C@@H](Cc1c[nH]c2ccccc12)C(=O)N[C@@H](CC(C)C)C(=O)N[C@@H](CCCCN)C(=O)N[C@@H](C)C(=O)NCC(=O)NCC(=O)N1CCC[C@H]1C(=O)N[C@@H](CO)C(=O)N[C@@H](CO)C(=O)NCC(=O)N[C@@H](C)C(=O)N1CCC[C@H]1C(=O)N1CCC[C@H]1C(=O)N1CCC[C@H]1C(=O)N[C@@H](CO)C(N)=O)[C@@H](C)CC)[C@@H](C)CC)C(=O)O

Tests used:
Assay in all cases: cell-based or functional assay
[1] = molecular target: human glucagon receptor (human, UniProt P47871 26-477)
Chain of human glucagon receptor (P47871 26-477): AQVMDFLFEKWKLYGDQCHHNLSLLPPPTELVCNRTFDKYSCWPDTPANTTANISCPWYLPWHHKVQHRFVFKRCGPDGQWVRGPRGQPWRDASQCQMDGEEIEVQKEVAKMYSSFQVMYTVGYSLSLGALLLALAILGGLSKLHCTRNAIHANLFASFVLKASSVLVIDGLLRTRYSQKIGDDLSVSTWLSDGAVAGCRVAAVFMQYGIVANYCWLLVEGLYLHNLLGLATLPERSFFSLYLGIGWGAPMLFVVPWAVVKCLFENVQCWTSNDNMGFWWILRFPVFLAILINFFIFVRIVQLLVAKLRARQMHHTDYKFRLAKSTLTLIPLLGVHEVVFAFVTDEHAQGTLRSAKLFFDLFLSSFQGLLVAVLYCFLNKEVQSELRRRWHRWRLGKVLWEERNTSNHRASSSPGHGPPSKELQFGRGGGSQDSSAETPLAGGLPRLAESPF

[2] = molecular target: T1, human GIP receptor
[3] = molecular target: human GLP-1 receptor (human, UniProt P43220 24-463)

Binder	EC50 hGLUC R [1] [pM]	EC50 hGIP R [2] [pM]	EC50 hGLP-1 R [3] [pM]
B1	1720	47.9	10
B2	195	45.6	17.2
